Measurements as given in patent US20100260765A1 (AstraZeneca / MedImmune, published 2010).

Columns and labels:
human KDR on cells = human KDR on cells (human, UniProt P35968 20-1356); test: cell-based or functional assay
[1] = molecular target: T1, KDR (antigen used as analyte in the Biacore assay) (UniProt P35968 20-764, limits assumed); test: SPR, Biacore 2000; antibody amine-coupled on CM4 chip, KDR as analyte; global 1:1 fit; 23 C
T1 construct: also called the antigen KDR
Procedure: Each purified anti-KDR antibody was immobilized on a CM4 sensor chip within a Biacore 2000 using standard amine coupling. Immobilization levels were kept between 250 and 350 RU. The concentration of KDR was determined by UV-VIS spectroscopy using a molar absorptivity at 280 nm of 110, 440 M⁻¹ cm⁻¹, which was calculated from the sequence of the protein using a method developed by Pace et al. (G. R. Grimsley and C. N. Pace (2003) in Current Protocols in Protein Science (John Wiley & Sons, Inc.), 3.1.1-3.1.9). The antigen KDR was diluted to a starting concentration of 52 nM and tested in a 3-fold dilution series in triplicate. The running buffer contained HBS-P with 0.1 mg/ml BSA and binding responses were collected at 23 degrees C. […] The response data were globally fit with a simple 1:1 interaction model. The number shown in parentheses is the standard error in the last significant figure.

T1 sequence (P35968 20-764 limits assumed): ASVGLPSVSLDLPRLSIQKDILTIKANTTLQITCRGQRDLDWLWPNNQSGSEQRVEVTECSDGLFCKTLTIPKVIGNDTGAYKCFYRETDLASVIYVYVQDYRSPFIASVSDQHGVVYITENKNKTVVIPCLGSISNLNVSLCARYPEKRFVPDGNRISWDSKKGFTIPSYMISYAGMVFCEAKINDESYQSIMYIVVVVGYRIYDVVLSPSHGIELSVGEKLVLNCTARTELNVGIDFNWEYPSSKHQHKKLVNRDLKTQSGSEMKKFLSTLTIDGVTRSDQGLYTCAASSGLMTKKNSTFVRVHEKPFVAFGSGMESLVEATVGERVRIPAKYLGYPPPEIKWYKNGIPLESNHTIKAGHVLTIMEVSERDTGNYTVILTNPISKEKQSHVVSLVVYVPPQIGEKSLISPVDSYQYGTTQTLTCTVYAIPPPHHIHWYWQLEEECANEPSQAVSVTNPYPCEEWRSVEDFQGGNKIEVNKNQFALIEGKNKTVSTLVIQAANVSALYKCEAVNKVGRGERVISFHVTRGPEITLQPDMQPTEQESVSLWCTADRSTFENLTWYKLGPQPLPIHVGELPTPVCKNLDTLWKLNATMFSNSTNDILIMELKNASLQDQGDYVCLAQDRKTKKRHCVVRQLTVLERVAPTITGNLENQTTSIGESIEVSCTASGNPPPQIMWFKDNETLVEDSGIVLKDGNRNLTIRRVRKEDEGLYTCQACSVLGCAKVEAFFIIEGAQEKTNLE
Sequence of human KDR on cells (P35968 20-1356): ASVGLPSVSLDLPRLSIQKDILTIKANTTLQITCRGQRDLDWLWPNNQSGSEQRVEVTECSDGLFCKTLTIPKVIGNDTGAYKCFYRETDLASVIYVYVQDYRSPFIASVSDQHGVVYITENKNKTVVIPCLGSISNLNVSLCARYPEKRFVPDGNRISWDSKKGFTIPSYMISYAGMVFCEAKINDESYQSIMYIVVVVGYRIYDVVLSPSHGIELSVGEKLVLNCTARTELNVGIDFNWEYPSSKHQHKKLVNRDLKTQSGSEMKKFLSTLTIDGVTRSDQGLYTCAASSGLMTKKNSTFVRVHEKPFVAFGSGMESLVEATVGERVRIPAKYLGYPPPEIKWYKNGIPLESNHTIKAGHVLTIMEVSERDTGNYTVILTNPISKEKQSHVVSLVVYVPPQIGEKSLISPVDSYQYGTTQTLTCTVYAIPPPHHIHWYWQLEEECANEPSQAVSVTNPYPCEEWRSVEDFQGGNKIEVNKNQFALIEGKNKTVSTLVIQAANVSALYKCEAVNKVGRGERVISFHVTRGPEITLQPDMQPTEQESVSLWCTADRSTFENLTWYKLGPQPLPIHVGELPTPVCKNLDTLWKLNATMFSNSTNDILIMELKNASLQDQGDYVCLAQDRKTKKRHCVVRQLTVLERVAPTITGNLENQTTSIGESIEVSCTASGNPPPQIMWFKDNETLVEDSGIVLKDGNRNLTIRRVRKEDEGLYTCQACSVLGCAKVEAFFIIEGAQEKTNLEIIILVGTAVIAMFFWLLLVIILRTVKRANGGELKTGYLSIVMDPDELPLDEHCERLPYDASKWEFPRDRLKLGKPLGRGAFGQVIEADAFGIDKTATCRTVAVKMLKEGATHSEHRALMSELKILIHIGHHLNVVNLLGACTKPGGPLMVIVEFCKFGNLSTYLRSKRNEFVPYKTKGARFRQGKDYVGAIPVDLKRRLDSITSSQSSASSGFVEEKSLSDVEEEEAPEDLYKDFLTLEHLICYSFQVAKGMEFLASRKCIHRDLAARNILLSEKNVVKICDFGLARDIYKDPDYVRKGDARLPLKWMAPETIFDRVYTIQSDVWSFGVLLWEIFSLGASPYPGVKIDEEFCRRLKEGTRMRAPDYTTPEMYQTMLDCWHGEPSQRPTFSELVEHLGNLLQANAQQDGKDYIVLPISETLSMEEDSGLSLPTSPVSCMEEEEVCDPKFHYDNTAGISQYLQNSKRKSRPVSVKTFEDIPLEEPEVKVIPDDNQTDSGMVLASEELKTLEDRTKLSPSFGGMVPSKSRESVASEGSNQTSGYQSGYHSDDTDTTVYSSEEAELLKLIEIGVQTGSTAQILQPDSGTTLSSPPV

% Inhibition (Average) of VEGF-C-mediated KDR activity, antibody 1 nM (human KDR on cells)	% Inhibition (Average) of VEGF-C-mediated KDR activity, antibody 10 nM (human KDR on cells)	% Inhibition (Average) of VEGF-C-mediated KDR activity, antibody 100 nM (human KDR on cells)	% Inhibition (N = 1) of VEGF-C-mediated KDR activity, antibody 1 nM (human KDR on cells)	% Inhibition (N = 1) of VEGF-C-mediated KDR activity, antibody 10 nM (human KDR on cells)	% Inhibition (N = 1) of VEGF-C-mediated KDR activity, antibody 100 nM (human KDR on cells)	% Inhibition (N = 2) of VEGF-C-mediated KDR activity, antibody 1 nM (human KDR on cells)	% Inhibition (N = 2) of VEGF-C-mediated KDR activity, antibody 10 nM (human KDR on cells)	% Inhibition (N = 2) of VEGF-C-mediated KDR activity, antibody 100 nM (human KDR on cells)	Kd [1]	koff [1]	kon [1]	Binder
30%	62%	71%	26%	61%	67%	34%	62%	75%	1.09 nM	0.000191 s⁻¹	175000 M⁻¹ s⁻¹	24B3 (antibody, V domains shown, Purified fully human monoclonal antibody from XenoMouse hybridoma (IgG2 or IgG4 strains); also called MAb 24B3) VH: EVQLVESGGGLVKPGGSLRLSCAASGFTFSTYSMNWVRQAPGKGLEWVSFISGRSSYIYYADSVKGRFTISRDNAKNSLYLQMNSLRAEDTAVYYCSKDDWFEELWGQGTLVTVSS VL: DIQMTQSPSSLSASVGDRVTITCRASQGIRSDLGWYQQKPGKAPKRLIYATSSLQSGVPSRFSGSGSGTEFTLTISSLQPEDFATYYCLQHNRYPWTFGQGTKVEIK
66%	88%	85%	71%	87%	84%	61%	89%	86%	0.91 nM	9.3e-05 s⁻¹	102000 M⁻¹ s⁻¹	33C3 (antibody, V domains shown, Purified fully human monoclonal antibody from XenoMouse hybridoma (IgG2 or IgG4 strains); also called MAb 33C3) VH: QVQLVESGGGLVKPGESLRLSCAASGFTFSDYYMSWIRQAPGKGLEWVSYISHGGSTIYYADSVKGRFTISRDNAKNSLYLQMNSLRVEDTAVYFCARDDFWSGYYFNWFDPWGQGALVTVSS VL: DIQMTQYPLSLSASVGDRVTITCRASQSISSFLNWYHQKPGKAPKLLIYGTSSLQSGVPSRFSGSGSGTDFTLTISSLQPEDFATYYCQQTYSIPLTFGGGTNVEIK
